Six molecules from patent publication US20230227547A1 (IPROGEN BIOTECH, published 2023) can be followed below.

One test concerns the target T1, folate receptor (human, UniProt P15328 25-234).
T1 construct: whole, on cells; also called folate receptor alpha
As to the kind of experiment: summary sentence of Example 3.

The target of test [1] is T2, sodium-dependent phosphate transport protein 2B (NaPi2b) (human, UniProt O95436 1-690).
T2 construct: whole, on cells
T2 sequence (looked up): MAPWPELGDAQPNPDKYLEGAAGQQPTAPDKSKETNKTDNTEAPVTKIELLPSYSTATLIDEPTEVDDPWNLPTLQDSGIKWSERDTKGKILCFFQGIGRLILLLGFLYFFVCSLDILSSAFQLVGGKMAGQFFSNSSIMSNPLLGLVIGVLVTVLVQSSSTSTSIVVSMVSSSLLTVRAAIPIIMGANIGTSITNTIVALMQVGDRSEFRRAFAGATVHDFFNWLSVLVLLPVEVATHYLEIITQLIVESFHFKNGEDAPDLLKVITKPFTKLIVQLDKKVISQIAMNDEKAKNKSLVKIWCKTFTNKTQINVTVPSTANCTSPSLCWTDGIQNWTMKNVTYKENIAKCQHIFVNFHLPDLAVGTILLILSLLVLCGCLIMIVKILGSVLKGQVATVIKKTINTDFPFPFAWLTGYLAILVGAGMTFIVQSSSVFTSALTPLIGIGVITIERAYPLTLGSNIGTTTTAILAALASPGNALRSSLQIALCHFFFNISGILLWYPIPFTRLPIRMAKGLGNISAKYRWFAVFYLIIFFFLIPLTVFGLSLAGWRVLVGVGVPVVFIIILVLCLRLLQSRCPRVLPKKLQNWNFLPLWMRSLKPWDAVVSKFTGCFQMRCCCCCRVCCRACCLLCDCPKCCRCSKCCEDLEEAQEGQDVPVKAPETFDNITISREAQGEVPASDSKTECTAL
As to the kind of experiment: fluorescence microscopy, goat anti-human IgG-AlexaFluor488, OVCAR3 cells, 100 nM mAb, 3 h.
Description: (§1) Delivery assay. […] The permeabilized cells were then incubated with 5% (v/v) FBS, 0.05% (v/v) Tween-20 in PBS at 37 degree Celsius incubator for 30 minutes. […] After incubation, the labelled cells were washed twice with PBS, and stored in storage buffer [5% (v/v) FBS in PBS] at 4 degree Celsius until fluorescence microscope imaging.

The target in test [2] is T2, sodium-dependent phosphate transport …. Description: fluorescence microscopy, goat anti-human IgG-AlexaFluor488, OVCAR3 cells, 100 nM mAb-LL37, 3 h.
Description: as §1
The target in test [3] is T3, Epithelial cell adhesion molecule (EpCAM) (human, UniProt P16422 24-314).
T3 construct: whole, on cells
T3 sequence (looked up): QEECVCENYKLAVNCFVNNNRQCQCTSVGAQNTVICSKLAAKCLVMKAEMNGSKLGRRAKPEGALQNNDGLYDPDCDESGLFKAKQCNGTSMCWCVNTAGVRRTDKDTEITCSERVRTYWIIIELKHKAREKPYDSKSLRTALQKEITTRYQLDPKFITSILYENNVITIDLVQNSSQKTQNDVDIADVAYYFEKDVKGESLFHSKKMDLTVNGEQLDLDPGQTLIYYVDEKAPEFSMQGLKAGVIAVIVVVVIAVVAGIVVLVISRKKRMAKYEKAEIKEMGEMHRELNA
Description: fluorescence microscopy, goat anti-human IgG-AlexaFluor488, LnCap cells, 100 nM mAb, 3 h.
Description: as §1

Test [4] concerns the target T3, Epithelial cell adhesion molecule …. Description: fluorescence microscopy, goat anti-human IgG-AlexaFluor488, LnCap cells, 100 nM mAb-LL37, 3 h.
Description: as §1
A further test concerns the target T4, CD33A (human, UniProt P20138 18-364).
T4 construct: whole, on cells
As to the kind of experiment: summary sentence of Example 3.

T1 sequence (P15328 25-234): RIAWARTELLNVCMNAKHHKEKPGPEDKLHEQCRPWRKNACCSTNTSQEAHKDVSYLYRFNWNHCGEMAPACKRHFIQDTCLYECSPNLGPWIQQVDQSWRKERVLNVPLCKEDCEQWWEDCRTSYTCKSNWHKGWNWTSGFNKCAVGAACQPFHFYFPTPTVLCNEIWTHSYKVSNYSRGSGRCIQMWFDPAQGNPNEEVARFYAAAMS
T4 sequence (P20138 18-364): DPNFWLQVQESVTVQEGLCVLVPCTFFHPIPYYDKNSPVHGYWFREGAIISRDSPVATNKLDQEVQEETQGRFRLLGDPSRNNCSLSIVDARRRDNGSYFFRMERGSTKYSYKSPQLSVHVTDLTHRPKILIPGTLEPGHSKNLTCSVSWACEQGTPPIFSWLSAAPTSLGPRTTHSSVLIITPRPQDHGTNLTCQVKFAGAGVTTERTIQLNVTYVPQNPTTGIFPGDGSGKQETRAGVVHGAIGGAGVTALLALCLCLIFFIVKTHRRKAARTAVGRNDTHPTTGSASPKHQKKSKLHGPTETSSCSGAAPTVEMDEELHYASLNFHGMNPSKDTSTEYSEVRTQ

B1: Anti-folate receptor mAb-LL37 (Mirvetuximab-LL37) (antibody, human IgG1, kappa)
heavy: not shown
light: DIVLTQSPLSLAVSLGQPAIISCKASQSVSFAGTSLMHWYHQKPGQQPRLLIYRASNLEAGVPDRFSGSGSKTDFTLTISPVEAEDAATYYCQQSREYPYTFGGGTKLEIKRTVAAPSVFIFPPSDEQLKSGTASVVCLLNNFYPREAKVQWKVDNALQSGNSQESVTEQDSKDSTYSLSSTLTLSKADYEKHKVYACEVTHQGLSSPVTKSFNRGECGGGGSLPETGGLLGDFFRKSKEKIGKEFKRIVQRIKDFLRNLVPRTES
notes: also called anti-folate receptor mAb (mirvetuximab) with LL37 conjugation
Take B1: the binding result in the test with folate receptor is “binds”.

B2: Anti-NaPi2b mAb, Lifastuzumab (antibody, human IgG1, kappa)
heavy: not shown
light: DIQMTQSPSSLSASVGDRVTITCRSSETLVHSSGNTYLEWYQQKPGKAPKLLIYRVSNRFSGVPSRFSGSGSGTDFTLTISSLQPEDFATYYCFQGSFNPLTFGQGTKVEIKRTVAAPSVFIFPPSDEQLKSGTASVVCLLNNFYPREAKVQWKVDNALQSGNSQESVTEQDSKDSTYSLSSTLTLSKADYEKHKVYACEVTHQGLSSPVTKSFNRGECGGGGSLPMTGGHG
Consider B2, for which the binding result in test [1] is given as “binds”.

B3: Lifastuzumab-LL37 (LL37-linked anti-NaPi2b mAb) (antibody, human IgG1, kappa)
heavy: not shown
light: DIQMTQSPSSLSASVGDRVTITCRSSETLVHSSGNTYLEWYQQKPGKAPKLLIYRVSNRFSGVPSRFSGSGSGTDFTLTISSLQPEDFATYYCFQGSFNPLTFGQGTKVEIKRTVAAPSVFIFPPSDEQLKSGTASVVCLLNNFYPREAKVQWKVDNALQSGNSQESVTEQDSKDSTYSLSSTLTLSKADYEKHKVYACEVTHQGLSSPVTKSFNRGECGGGGSLPMTGGLLGDFFRKSKEKIGKEFKRIVQRIKDFLRNLVPRTES
Take B3: the binding result in test [2] is given as “binds”.

B4: Anti-EpCAM mAb, Citatuzumab (antibody, human IgG1, kappa)
heavy: not shown
light: DIQMTQSPSSLSASVGDRVTITCRSTKSLLHSNGITYLYWYQQKPGKAPKLLIYQMSNLASGVPSRFSSSGSGTDFTLTISSLQPEDFATYYCAQNLEIPRTFGQGTKVEIKRTVAAPSVFIFPPSDEQLKSGTASVVCLLNNFYPREAKVQWKVDNALQSGNSQESVTEQDSKDSTYSLSSTLTLSKADYEKHKVYACEVTHQGLSSPVTKSFNRGECGGGGSLPMTGGHG
In the case of B4, the binding result in test [3] was “binds”.

B5: Citatuzumab-LL37 (LL37-conjugated anti-EpCAM antibody citatuzumab) (antibody, human IgG1, kappa)
heavy: not shown
light: DIQMTQSPSSLSASVGDRVTITCRSTKSLLHSNGITYLYWYQQKPGKAPKLLIYQMSNLASGVPSRFSSSGSGTDFTLTISSLQPEDFATYYCAQNLEIPRTFGQGTKVEIKRTVAAPSVFIFPPSDEQLKSGTASVVCLLNNFYPREAKVQWKVDNALQSGNSQESVTEQDSKDSTYSLSSTLTLSKADYEKHKVYACEVTHQGLSSPVTKSFNRGECGGGGSLPMTGGLLGDFFRKSKEKIGKEFKRIVQRIKDFLRNLVPRTES
As to B5, the binding result in test [4] is recorded as “binds”.

B6: Anti-CD33A mAb (Vadastuximab)-LL37 (antibody, human IgG1, kappa)
heavy: not shown
light: DIQMTQSPSSLSASVGDRVTINCKASQDINSYLSWFQQKPGKAPKTLIYRANRLVDGVPSRFSGSGSGQDYTLTISSLQPEDFATYYCLQYDEFPLTFGGGTKVEIKRTVAAPSVFIFPPSDEQLKSGTASVVCLLNNFYPREAKVQWKVDNALQSGNSQESVTEQDSKDSTYSLSSTLTLSKADYEKHKVYACEVTHQGLSSPVTKSFNRGECGGGGSLPMTGGLLGDFFRKSKEKIGKEFKRIVQRIKDFLRNLVPRTES
B6: the binding result with CD33A is recorded as “binds”.
